Source: article PMC5072841, “Insights into HIV-1 proviral transcription from integrative structure and dynamics of the Tat:AFF4:P-TEFb:TAR complex” (eLife, 2016)

B1: AFF4 peptide 32-67 (peptide, UniProt Q9UHB7 32-67, looked up)
chain: Ac-SPLFAEPYKVTSKEDKLSSRIQSMLGNYDEMKDFIG-NH2
notes: human AFF4, residues 32-67; also called AFF4_(32-67); synthetic AFF4 peptide (32-67); source: synthetic peptide (University of Utah DNA/Peptide Facility)

What was measured:
[1] = system: HIV-1 Tat;Cyclin T1 (CycT1, P-TEFb subunit);CDK9 (P-TEFb subunit);AFF4 2-73 E61A (HIV-1;human;human;human); assay: EMSA; settings: EMSA: 100 pM 32P-TAR, 0.009-190 nM Tat:P-TEFb, 5-fold molar excess AFF4 over P-TEFb; buffer and temperature as in Schulze-Gahmen 2014 (not given). SHAPE: RNA …
[2] = system: HIV-1 Tat;Cyclin T1 (CycT1, P-TEFb subunit);CDK9 (P-TEFb subunit);AFF4 2-73 K63A (HIV-1;human;human;human); assay: EMSA; settings: EMSA: 100 pM 32P-TAR, 0.009-190 nM Tat:P-TEFb, 5-fold molar excess AFF4 over P-TEFb; buffer and temperature as in Schulze-Gahmen 2014 (not given). SHAPE: RNA …
[3] = system: HIV-1 Tat;Cyclin T1 (CycT1, P-TEFb subunit);CDK9 (P-TEFb subunit) (HIV-1;human;human); assay: EMSA; settings: EMSA: 100 pM 32P-TAR, 0.009-190 nM Tat:P-TEFb, 5-fold molar excess AFF4 over P-TEFb; buffer and temperature as in Schulze-Gahmen 2014 (not given). SHAPE: RNA …
[4] = system: HIV-1 Tat;Cyclin T1 (CycT1, P-TEFb subunit);CDK9 (P-TEFb subunit);AFF4 2-73 WT (HIV-1;human;human;human); assay: EMSA; settings: EMSA: 100 pM 32P-TAR, 0.009-190 nM Tat:P-TEFb, 5-fold molar excess AFF4 over P-TEFb; buffer and temperature as in Schulze-Gahmen 2014 (not given). SHAPE: RNA …
[5] = system: HIV-1 Tat;Cyclin T1 (CycT1, P-TEFb subunit);CDK9 (P-TEFb subunit);AFF4 2-73 WT (HIV-1;human;human;human); assay: EMSA; settings: EMSA: 100 pM 32P-TAR, 0.009-190 nM Tat:P-TEFb, 5-fold molar excess AFF4 over P-TEFb; buffer and temperature as in Schulze-Gahmen 2014 (not given). SHAPE: RNA …; remark: listed apart in the source
human cyclin T1 1-264 = biological target: T1, human cyclin T1 1-264 (human, UniProt O60563 1-264); assay: crystal structure; Tat_(1-57):AFF4_(32-67):P-TEFb combined with TAR21 RNA (nucleotides 21-41) at 1:1.3; sitting drops at 18°C; 5.9 Å; molecular replacement with PDB 4OGR; settings: both partners purified
T1 construct: human cyclin T1, residues 1-264; also called CycT1; CycT; source: High 5 insect cells, recombinant baculovirus, co-expressed with CDK9 and Tat, purified
T1 sequence (O60563 1-264): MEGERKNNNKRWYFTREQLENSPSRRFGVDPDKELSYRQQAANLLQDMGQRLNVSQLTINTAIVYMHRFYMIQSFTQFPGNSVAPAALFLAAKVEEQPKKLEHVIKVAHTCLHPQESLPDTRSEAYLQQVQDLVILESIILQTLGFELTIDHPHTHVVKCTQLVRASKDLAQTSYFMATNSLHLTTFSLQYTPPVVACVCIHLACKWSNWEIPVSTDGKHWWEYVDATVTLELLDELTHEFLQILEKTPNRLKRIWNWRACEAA

| Molecule | binding signal (fold reduction in affinity vs WT AFF4) [1] | binding signal (fold reduction in affinity vs WT AFF4) [2] | Kd [3] [nM] | Kd [4] [nM] | Kd [5] [nM] | binding result (human cyclin T1 1-264) |
| --- | --- | --- | --- | --- | --- | --- |
| HIV-1 TAR 18-44 WT | 3 | 2 | 19 | 0.26 | 0.2 |  |
| B1 |  |  |  |  |  | binds |
